Details: Equus caballus, pH 2, Sodium phosphate 10 mM, KCl 1 M; for denaturant midpoint (higher = more stable) / unfolding free energy: 10 °C, Acid
[1] = Thermal, CD, transition: 3, structure 1AKK

Chain of Cytochrome c wild type, P00004 (P00004 whole entry): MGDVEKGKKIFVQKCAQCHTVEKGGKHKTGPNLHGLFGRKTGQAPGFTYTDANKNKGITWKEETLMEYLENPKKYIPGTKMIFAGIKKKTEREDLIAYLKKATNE
Chain of Cytochrome c L95A, P00004 (P00004 whole entry L95A): as the sequence (P00004 whole entry) above, with L95A counted along it
Chain of Cytochrome c L95V, P00004 (P00004 whole entry L95V): as the sequence (P00004 whole entry) above, with L95V counted along it

Row | Substance | denaturant midpoint (higher = more stable) (CD, structure 1AKK) | unfolding free energy (CD, structure 1AKK) | denaturant midpoint (higher = more stable) (Fluorescence, structure 1AKK) | unfolding free energy (Fluorescence, structure 1AKK) | ddG of mutation (higher = less stable) (83 °C, Thermal, CD, transition: 3, structure 1AKK) | Tm [1] | change of melting temperature, mutant - wild type (higher = more stable) [1] | unfolding enthalpy (van 't Hoff) [1] | denaturant midpoint (higher = more stable) (CD) | unfolding free energy (CD) | denaturant midpoint (higher = more stable) (Fluorescence) | unfolding free energy (Fluorescence) | Tm (Thermal, CD, transition: 3) | unfolding enthalpy (van 't Hoff) (Thermal, CD, transition: 3)
1 | Cytochrome c L95A, P00004 | 0.83 M | 0.1 kcal/mol | 0.3 M | 0.74 kcal/mol |  |  |  |  |  |  |  |  |  | 
2 | Cytochrome c L95V, P00004 | 0.1 M | 2.59 kcal/mol | 0.08 M | 2.7 kcal/mol | 1.2 kcal/mol | 79 °C | -4 °C | 104 kcal/mol |  |  |  |  |  | 
3 | Cytochrome c wild type, P00004 |  |  |  |  |  |  |  |  | 0.03 M | 4.14 kcal/mol | 0.03 M | 3.54 kcal/mol | 83 °C | 107 kcal/mol
